Data published in EP4814018A2 (F. Hoffmann-La Roche AG, dated 2026).

Key:
[1] = biological target: T1, human transferrin receptor (human, UniProt P02786 89-760); assay: BIAcore
T1 construct: also called huTfR; hTfR

[2] = biological target: T2, cynomolgus transferrin receptor (cynomolgus, UniProt H9EXL1 89-760 (rhesus entry)); assay: BIAcore
T2 construct: also called cyTfR; Cyno TfR

[3] = biological target: T3, cynomolgus transferrin receptor on stably transfected CHO cells (cynomolgus); assay: FACS on cyTfR CHO cells
T3 construct: whole, on cells; also called Cyno TfR-CHO; cyTfR (FACS)

[4] = biological target: T3, cynomolgus transferrin receptor on …; assay: FACS, cyno against human TfR CHO cells
[5] = biological target: T2, cynomolgus transferrin receptor; assay: BIAcore B4000, biotinylated TfR captured (Example 14), 25 °C
[6] = biological target: T2, cynomolgus transferrin receptor; assay: BIAcore T200, biotinylated TfR captured (Example 13), 25 °C

T2 sequence (chain, as listed by the source): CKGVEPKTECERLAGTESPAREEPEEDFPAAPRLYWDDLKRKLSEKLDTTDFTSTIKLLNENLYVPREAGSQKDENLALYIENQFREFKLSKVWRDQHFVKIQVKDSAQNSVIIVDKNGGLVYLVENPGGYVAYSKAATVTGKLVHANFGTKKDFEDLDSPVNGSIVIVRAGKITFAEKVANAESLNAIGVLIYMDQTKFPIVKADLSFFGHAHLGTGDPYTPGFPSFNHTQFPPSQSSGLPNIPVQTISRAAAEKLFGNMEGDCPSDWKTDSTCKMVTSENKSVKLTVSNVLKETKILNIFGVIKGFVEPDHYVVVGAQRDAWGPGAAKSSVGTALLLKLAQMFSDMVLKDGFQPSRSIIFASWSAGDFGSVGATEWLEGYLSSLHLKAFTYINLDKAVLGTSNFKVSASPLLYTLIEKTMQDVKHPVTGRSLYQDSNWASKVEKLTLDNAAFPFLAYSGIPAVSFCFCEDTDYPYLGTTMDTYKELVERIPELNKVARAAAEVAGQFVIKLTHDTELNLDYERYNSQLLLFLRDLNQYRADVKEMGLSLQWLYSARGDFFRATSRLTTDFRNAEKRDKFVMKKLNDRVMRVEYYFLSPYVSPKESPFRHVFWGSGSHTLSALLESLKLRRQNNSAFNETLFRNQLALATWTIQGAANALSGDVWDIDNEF
T1 sequence (P02786 89-760 limits assumed): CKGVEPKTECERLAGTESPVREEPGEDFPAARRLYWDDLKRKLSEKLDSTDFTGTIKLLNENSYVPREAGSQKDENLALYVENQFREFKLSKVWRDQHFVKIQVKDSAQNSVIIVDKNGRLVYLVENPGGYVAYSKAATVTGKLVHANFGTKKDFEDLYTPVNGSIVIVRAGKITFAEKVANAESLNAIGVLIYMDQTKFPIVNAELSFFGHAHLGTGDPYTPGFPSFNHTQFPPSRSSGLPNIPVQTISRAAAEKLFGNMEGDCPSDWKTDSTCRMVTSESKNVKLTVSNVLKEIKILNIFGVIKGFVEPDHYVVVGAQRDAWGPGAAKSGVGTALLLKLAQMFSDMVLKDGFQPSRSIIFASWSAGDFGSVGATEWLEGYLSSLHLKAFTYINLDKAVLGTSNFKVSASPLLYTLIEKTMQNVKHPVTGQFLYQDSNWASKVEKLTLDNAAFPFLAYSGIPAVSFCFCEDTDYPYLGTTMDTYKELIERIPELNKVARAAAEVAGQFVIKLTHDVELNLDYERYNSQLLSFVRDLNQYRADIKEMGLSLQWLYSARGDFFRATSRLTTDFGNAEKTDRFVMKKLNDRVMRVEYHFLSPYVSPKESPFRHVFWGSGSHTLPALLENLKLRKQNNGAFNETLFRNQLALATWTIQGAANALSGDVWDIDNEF

- BIAcore t1/2 [1]: 19 min
- BIAcore t1/2 [2]: 0.2 min
- EC50 [3]: 0.314 µg/mL
- ratio EC50 Cyno/ human [4]: 3.3
- ratio max Cyno/ human [4]: 0.6
- koff [5]: 0.0778 s⁻¹
- Kd [6]: 136 nM
- koff [6]: 0.0733 s⁻¹
- kon [6]: 541000 M⁻¹ s⁻¹
B1: murine anti-transferrin receptor antibody 128.1 (antibody, V domains shown)
VH: QVQLVQSGAEVKKPGASVKVSCKASGYTFTGYTMNWVRQAPGQGLEWMGRINPHNGGTDYAQKFQGRVTMTRDTSISTAYMELSRLRSDDTAVYYCARGYYYYSLDYWGQGTLVTVSS
VL: DIQMTQSPSSLSASVGDRVTITCRASSSIRYIHWYQQKPGKAPKRLIYDTSNLASGVPSRFSGSGSGTEFTLTISSLQPEDFATYYCHQRNSYPWTFGQGTRLEIK
